From patent US20130295095A1 (GEORG AUGUST UNIVERSIT T G TTINGEN STIFTUNG FFENTLICHEN …, published 2013) come the findings set out here.

The target of this test is T1, AβpE3-38 (human, UniProt P05067 674-709, pyroglutamate at position 3 (N-terminal residue)).
T1 construct: range 3-38; The range counts on Aβ numbering, not on the APP precursor; also called human AβpE3-38
The experiment in a line: ELISA screening of hybridoma clones. From the text: The AβpE3 oligomere specific antibodies 9D5H6 (IgG2b) and 8C4D2 (IgG1) were generated by immunizing three Balb/c mice with AβpE3-38. After preparation of the lymph nodes cells were fused with the myeloma cell line P3-X63-Ag8. The hybridoma supernatants of mixed clones were screened by ELISA and subcloned. The monoclonal antibodies 9D5 and 8C4 were selected by ELISA against different N-terminal Aβ epitopes. Clones producing signals with AβpE3-38 and AβpE3-42, but no signal with […] were isolated and further characterized. For comparison, Aβ antibodies 4G8 (Aβ epitope 17-24; Covance), W0-2 (Aβ epitope 4-8; The Genetics Company), NT78 (against generic Aβ1-16, Synaptic Systems) and 2-48 (against N-terminal AβpE3, Synaptic Systems; Wirths, O., et al. J Neural Transm 117, 85-96 (2010)) were used. GFAP (rabbit) and IBA1 (rabbit) antisera were from Synaptic Systems and Wako Pure Chemicals respectively. Peptides were purchased from PSL (Heidelberg, Germany), reconstituted as indicated below and immediately frozen until further use.

T1 sequence (P05067 674-709): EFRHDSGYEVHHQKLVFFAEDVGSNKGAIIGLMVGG

B1: PG3-38 9D5H6 (antibody, V domains shown)
VH: QLQQSGAELMKPGASVKISCKATGYTFSSYWIEWVKQRPGHGLEWIGEILPGRGSTHYNEKFKGKATFTADTSSNTAYMQLSSLTSEDSAVYYCARSPITTSDYWGQGTTLTVSS
VL: DVVMTQTPLSLPVSLGDQASISCRSSQSLLHSNGNTYLHWYLQKPGQSPKLLIYKVSNRFSGVPDRFSGSGSGTDFTLKISRVEAEDLGVYFCSQSTHVPLTFGAGT
notes: The printed VH starts at QLQQ and the printed VL ends at FGAGT, so both may be slightly truncated; also called antibody obtainable from hybridoma DSM ACC3056
B1: the binding result is recorded as “binds”.
